Data from the supplement of paper PMC12764529.
± gives the half width of the 95% confidence interval.

Experiments:
[1] = folding stability dG unfold from trypsin proteolysis; higher = more stable
How it was run: (§1)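 Bayesian fitting of sequencing counts gave K50 for each design. Unfolding free energy followed by setting this against a sequence-predicted unfolded-state K50 and a shared folded-state K50, either per protease or with trypsin and chymotrypsin combined. The designs, under 80 residues and lacking cysteine, were digested in a PA-tagged cDNA display format at 11 threefold-diluted protease concentrations and without protease, and only those with AlphaFold2 dimer inter-PAE above 15 were kept.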

[2] = folding stability dG unfold from chymotrypsin proteolysis; higher = more stable
How it was run: as §1

[3] = folding stability dG unfold (combined trypsin and chymotrypsin); higher = more stable
How it was run: as §1

Row | Sequence | folding stability dG unfold [1] [kcal/mol] | folding stability dG unfold [2] [kcal/mol] | folding stability dG unfold [3] [kcal/mol]
1 | SAGGSAGGMEEIVLPIPEEVAKELIASGTVTKTQTEGNRTILTKTPPSGGSTKITVVLPPSYPSSAGGSAGG [r6_654_JUSTAS] | 1.2 ± 0.095 | 1.24 ± 0.1 | 1.35 ± 0.17
2 | SAGGSAGGMELISEKPAKVKYGDKEAEVWVKLVKIPNTDEVLVTLYFPGSGKPRIIPAKDVEIESAGGSAGG [r6_263_TrMRF] | 0.655 ± 0.1 | 0.836 ± 0.18 | 0.836 ± 0.19
3 | SAGGSAGGMELLPDGTLVLTLKAPSLEEALKAAEALAPPGAEVEIRFDEETKEVVIVIKLPPPESAGGSAGG [r6_859_TrROS_Hall] | 2.46 ± 0.1 | 4.06 ± 0.046 | 3.85 ± 0.082
4 | SAGGSAGGMEPLTRVTVELELPGGETRVVEGDDLEAVKERLKEELGLPDLVVKSVKTTPLPALESAGGSAGG [r6_406_JUSTAS] | 0.6 ± 0.045 | 0.974 ± 0.027 | 0.857 ± 0.077
5 | SAGGSAGGMIEVSYDPVKNRYIATFKFPEGEVTITLPADLSPEEKAAAIKAAAEAAAKEKGIKLSAGGSAGG [r6_679_JUSTAS] | 1.68 ± 0.025 | 2 ± 0.05 | 1.88 ± 0.058
6 | SAGGSAGGMIKYSEEAPDPSYRTEVEVTPVPGKVAIKTTTYRNENGVWTAEESTSVVSPEALLSSAGGSAGG [r6_778_JUSTAS] | -0.703 ± 0.19 | 0.341 ± 0.095 | 0.0979 ± 0.088
7 | SAGGSAGGMILIKNEDGSLYLIEVETVTVTVKVKLPEELKELLKGIKPGDTITVTVTKVRIVKLSAGGSAGG [r6_907_TrROS_Hall] | 3.79 ± 0.15 | 4.58 ± 0.11 | 4.32 ± 0.17
8 | SAGGSAGGMIYKFTYPKGEPPLLFTYDPSTGKVTVTEPKTGKPLGTVDLSLEEAVKAGARIEPVSAGGSAGG [r6_832_JUSTAS] | 0.44 ± 0.073 | 0.96 ± 0.085 | 0.84 ± 0.057
9 | SAGGSAGGMKEITITNENGETLRIKVFNKETGEEKEIEFPAGMSLEDILKKLKEEEGLEVEIEPSAGGSAGG [r6_202_TrROS_Hall] | 2.27 ± 0.14 | 3.16 ± 0.071 | 3.01 ± 0.16
10 | SAGGSAGGMKIEIFQNDDGIYVRIKLKPPNGPPRTMVFPFTANQIKDALKQFPNYKIEDIEVYRSAGGSAGG [r6_879_TrROS] | 1.47 ± 0.12 | 2.18 ± 0.09 | 1.9 ± 0.15
11 | SAGGSAGGMKIIKYDKKTKKVLIYYDEETKEWYVRNKNGKIYKFKSVEEALKKLPVKVEIVKVPSAGGSAGG [r6_752_TrROS_Hall] | 1.5 ± 0.035 | 1.6 ± 0.14 | 1.67 ± 0.089
12 | SAGGSAGGMKITIEKLDPEKGVYLLTVKPPGPGKTLVIELPVEKEEEALAFAKKLEELGYEVENSAGGSAGG [r6_796_TrMRF] | 1.02 ± 0.02 | 1.57 ± 0.12 | 1.34 ± 0.13
13 | SAGGSAGGMKLTLRIEAPREEVERLAKEFEAQGIKVTVKPRPDGRVELTLEIDLPDTDKSLFDPSAGGSAGG [r6_8_TrMRF] | 2.49 ± 0.17 | 2.67 ± 0.057 | 2.55 ± 0.12
14 | SAGGSAGGMKTFTIDELKKLAEELGAEIYYDKDTNTIYIRTPGKIFRITINDDGTVTIEELPPKSAGGSAGG [r6_155_TrROS_Hall] | 3.05 ± 0.19 | 3.99 ± 0.083 | 3.66 ± 0.25
15 | SAGGSAGGMKVTLTPVSGEKYEIEVESEEEAKEKVEKLAKKLGIPGEVKVTIEKGDKTYELTIISAGGSAGG [r6_532_JUSTAS] | 2.98 ± 0.2 | 2.5 ± 0.11 | 2.39 ± 0.42
16 | SAGGSAGGMKVTTEGNAAGTNTVTVSYPDGSSVTRTLAPDDVVEVPVGGEVVLTVTVTANPDLPSAGGSAGG [r6_583_JUSTAS] | -0.0728 ± 0.1 | 0.0101 ± 0.061 | -0.0541 ± 0.12
17 | SAGGSAGGMLLDEDGNLVVKIKLENGEEFEAKVTEIKDGKITVEVNGKKVEINAKDIELLPEDESAGGSAGG [r6_575_TrROS_Hall] | 2.23 ± 0.088 | 2.27 ± 0.05 | 2.31 ± 0.096
18 | SAGGSAGGMLLVRIKVRRPDGSEETIVLEFESEEELKAAIEELLPPGWEVVEIELVPLGEELPESAGGSAGG [r6_872_TrROS_Hall] | 4.55 ± 0.17 | 4.402 ± 0.042 | 4.49 ± 0.11
19 | SAGGSAGGMLPAEELADYLEKNPGIEIEDIEPPDPGYITVKIKFPRPDPNGEKHKVEVTIQFPVSAGGSAGG [r6_154_TrROS] | 1.91 ± 0.24 | 1 ± 0.075 | 1.4 ± 0.32
20 | SAGGSAGGMLSPEVLEDPEKVIEFLKKMIPGLKIVVPPDAPPEVVEAAAKLAEETGIPVEIVVGSAGGSAGG [r6_129_TrMRF] | 1.06 ± 0.026 | -0.539 ± 0.48 | 0.555 ± 0.18
21 | SAGGSAGGMLVFVVKKIKPGMSDEQKKALEKLVKPGDVIELSPEEIERLAKLPWIQEIKVYPLPSAGGSAGG [r6_381_TrROS_Hall] | 0.641 ± 0.12 | 0.361 ± 0.34 | 0.548 ± 0.2

Row | Sequence | folding stability dG unfold [1] [kcal/mol] | folding stability dG unfold [2] [kcal/mol] | folding stability dG unfold [3] [kcal/mol]
22 | SAGGSAGGMPEYRVLDIEIETRPDMTPEEAVEEIRKALEPLGAIRVEAEPLPDGRIRVRVVLPESAGGSAGG [r6_881_TrMRF] | 3.5 ± 0.28 | 2.45 ± 0.25 | 3.27 ± 0.32
23 | SAGGSAGGMPVSVEIELTVPTSPDETPEEALERIREELAPLGVEEVTATPLPDGTVRFRITVPRSAGGSAGG [r6_882_JUSTAS] | 1.44 ± 0.048 | 0.504 ± 0.2 | 0.961 ± 0.13
24 | SAGGSAGGMRLEIVVEMSEEEARELAEALRRELEERGYRVRVEVRRLPDGRLVVRVEIEPAPEPSAGGSAGG [r6_597_TrROS_Hall] | 4.47 ± 0.19 | 4.49 ± 0.093 | 4.63 ± 0.17
25 | SAGGSAGGMRLVVEDFDEEEMEEVERRVREFAEEHDVEVDIYRRRRPDGRVVLVVEIRPKEDLPSAGGSAGG [r6_906_TrMRF] | 2.87 ± 0.058 | 3.02 ± 0.034 | 2.95 ± 0.052
26 | SAGGSAGGMTFVDLGEDKPVVIEVPPRPETGLYPVVIHPPEKPVFVEVESPEEAIEAAEKLVEGSAGGSAGG [r6_715_TrMRF] | 1.42 ± 0.051 | 0.788 ± 0.045 | 1.12 ± 0.045
27 | SAGGSAGGMTITLRIKITNPDGEEKEIEVELELPEELKGKTLEELAAELAKALLPPGAKVEVEPSAGGSAGG [r6_821_TrROS_Hall] | 1.73 ± 0.048 | 3.15 ± 0.074 | 2.72 ± 0.14
28 | SAGGSAGGMTITLTLPDGTVITITVSRPGSPTTVVSVKAERPARGGTDIPEEVAKELAEKILKESAGGSAGG [r6_235_JUSTAS] | 1.51 ± 0.037 | 2.96 ± 0.11 | 2.55 ± 0.076
29 | SAGGSAGGMTKTEVTVTVEKVPDGTYVVKTTKTTTTTNPDGTLTSSTTTTTKTVTPEELAAVLASAGGSAGG [r6_974_JUSTAS] | 3.7 ± 0.15 | 2.86 ± 0.044 | 3.16 ± 0.11
30 | SAGGSAGGMTLLIRDPETNELVEVTVEEKDGKLTLTVRNKKTGETTEIEIPLDEEPIEIVLLEPSAGGSAGG [r6_465_TrROS_Hall] | 2.09 ± 0.12 | 2.61 ± 0.021 | 2.43 ± 0.12
31 | SAGGSAGGMTLVLEGMSEEELEELARKLRELAEELGLKVKITVERREDGRVRLTVEIELPEELPSAGGSAGG [r6_906_TrROS_Hall] | 4.36 ± 0.26 | 3.69 ± 0.23 | 4.15 ± 0.25
32 | SAGGSAGGMTVDPENPVVYYPGSDGKAQTYPLSPDSSLKLPDGKVVTVTPVPEGSVSVSVSPVESAGGSAGG [r6_296_JUSTAS] | 0.571 ± 0.03 | 1.249 ± 0.011 | 1.02 ± 0.036
33 | SAGGSAGGMTVPITLPLDEYSPEEVEAKIKAIREEIEKKNPDKKISINVTLVPQPPEPTPENLRSAGGSAGG [r6_729_JUSTAS] | -0.745 ± 0.14 | 0.517 ± 0.023 | 0.299 ± 0.07
34 | SAGGSAGGMTVTFTLPATAPENALENVTATVTYNGKTYLVKITATPVPDGPFVVVTAELVEYDPSAGGSAGG [r6_415_TrMRF] | 3.02 ± 0.083 | 3.68 ± 0.14 | 3.34 ± 0.17
35 | SAGGSAGGMVERPITLRVRVKTPEEVKKLVEELLKPTDAKADVVEEELEDGTVLVTLTIYVPEESAGGSAGG [r6_719_TrMRF] | 1.67 ± 0.019 | 1.58 ± 0.038 | 1.62 ± 0.042
36 | SAGGSAGGMVIEFPKEKVEEVKKELLDAGKPDWVIVTDPNDPDIIKIMPKSLAEEKGWKYTPLLSAGGSAGG [r6_710_JUSTAS] | 2.33 ± 0.073 | 2.06 ± 0.043 | 2.09 ± 0.16
37 | SAGGSAGGMVIHEIEVESPDPEKAEEEAKARAEEIRKALEEEEGGIPGEVKFVPTPEEDPLLLLSAGGSAGG [r6_23_JUSTAS] | 1.99 ± 0.13 | 0.834 ± 0.075 | 1.43 ± 0.13
38 | SAGGSAGGMVIKLPLPNDLYAEIPVYSNSDGIVTARIVLYDPSTEEKVEKPFELPFEELLDLLSSAGGSAGG [r6_858_TrMRF] | 0.328 ± 0.027 | 0.899 ± 0.054 | 0.712 ± 0.081
39 | SAGGSAGGMVKVLVNPDGGATFIFNKDGSTSTIPVPYTTLEDVKAAVEALAKEYGIEVEEIVPASAGGSAGG [r6_254_JUSTAS] | 0.395 ± 0.085 | 1.38 ± 0.12 | 0.982 ± 0.15
40 | SAGGSAGGMVKVYPIDPNTPPEAVVARLEKEFPDRPIKSVSVSTVGDVPVVTITFPDGLKVVVSSAGGSAGG [r6_492_JUSTAS] | 0.975 ± 0.029 | 1.43 ± 0.03 | 1.23 ± 0.072
41 | SAGGSAGGMVTITEVSYDPKIGKTFTLVTVKDPEGKETLVEVPLEEIEKLIEEVPEGRPVEIAPSAGGSAGG [r6_113_JUSTAS] | -0.0621 ± 0.054 | -0.983 ± 0.64 | -0.199 ± 0.19
42 | SAGGSAGGMVTSTDPATGIVYSLDPTTGVWSAQTVTLPPITIPVSEVPELLKALPPGTPILVLASAGGSAGG [r6_104_JUSTAS] | 1.01 ± 0.016 | 1.16 ± 0.064 | 1.14 ± 0.037
